Source: patent US7396816B2, “Low-molecular weight peptides inhibiting ion channel activity” (Pharmadesign, Inc., priority 2003, dated 2008)
Where no end group is shown, it is not given here.

Legend:
[1] = target: T1, Ca^2+ dependant BigK channel derived from heart muscle (myocardial SA channel) (Gallus gallus, UniProt Q8AYS8); assay: single channel current recording by patch clamp (inside-out excised patch, back-fill); format: cell-based, chicken; conditions: for inhibiting activity: primary screening, channel's open probability (Po); for level of inhibiting activity compared with GsMTx-4: suggested from time taken for inhibition; for inhibition of wild-type SA channel: wild-type myocardial SA channel, FIG. 13
T1 construct: expressed in transfected cells; host or cells: CHO cells force-expressing the channel cDNA, or the endogenous channel of chicken ventricular muscle
Protocol: Activity assay of the peptides was carried out by the most reliable single channel current recording method using the patch clamp method. As the subject of the assay, Ca^2+ dependant BigK channel (Kawakubo et. Am J Physiol, 276: H1827.1999) derived from heart muscle was employed. By applying this channel to the expressed ventricle muscle of chicken or to CHO cells force-expressing the cDNA of this channel with the cell-attached patch clamp method, an inside-out excised patch was formed, and single channel current recordings were taken under a fixed membrane potential. Assuming that the designed synthetic peptide blocks the channel extracellularly the same as GsMTx-4, the space a fixed distance above the glass pipette used for recording was filled with the peptide of a known concentration beforehand, and administration was carried out by back-fill which utilizes diffusion to reach the channel, With this method, the concentration of the peptide inside the pipette reaches equilibrium 15 to 20 minutes after the start of diffusion, and so the dissociation constant of the peptide can be estimated from the inhibition ratio at 20 minutes and onwards. Or, the relative inhibition of the peptide can be estimated from the time taken for inhibition. If the exact dissociation constant of the peptide is to be calculated, it is necessary to prepare an outside-out excised patch, take single channel current recordings, analyze the inhibition effects of various peptides with different concentration, and obtain a dose-inhibition curve; however, as this method requires special technology and as this is the primary screening of the various designed synthetic peptides, the assay method combining the inside-out excised patch and back-fill described above was used to make a rough estimate of the inhibition effects of the peptides. […] Concerning the scale of evaluation, the channel's open probability (Po, indicated in percentage) was used, and the level of inhibition was expressed by the inhibition ratio (percentage) with the control (prior to the administration of the peptide) as the standard, or by the time taken for inhibition.

STREX-deletion-mutant = target: T2, STREX-deletion-mutant (Gallus gallus, UniProt Q8AYS8, DEL657-715); assay: single channel current recording, specificity to mechano-sensitive channel; format: cell-based; conditions: mutant lacking the 59 amino acid STREX sequence, FIG. 13
T2 construct: expressed in transfected cells; host or cells: CHO cells (inferred: a deletion mutant must be expressed heterologously, and CHO is the only expression host named for this channel)
Protocol: Activity assay of the peptides was carried out by the most reliable single channel current recording method using the patch clamp method. As the subject of the assay, Ca^2+ dependant BigK channel (Kawakubo et. Am J Physiol, 276: H1827.1999) derived from heart muscle was employed. By applying this channel to the expressed ventricle muscle of chicken or to CHO cells force-expressing the cDNA of this channel with the cell-attached patch clamp method, an inside-out excised patch was formed, and single channel current recordings were taken under a fixed membrane potential. […] If the exact dissociation constant of the peptide is to be calculated, it is necessary to prepare an outside-out excised patch, take single channel current recordings, analyze the inhibition effects of various peptides with different concentration, and obtain a dose-inhibition curve; however, as this method requires special technology and as this is the primary screening of the various designed synthetic peptides, the assay method combining the inside-out excised patch and back-fill described above was used to make a rough estimate of the inhibition effects of the peptides. […]

T1 sequence (Q8AYS8 1-1195 isoform Q8AYS8-3): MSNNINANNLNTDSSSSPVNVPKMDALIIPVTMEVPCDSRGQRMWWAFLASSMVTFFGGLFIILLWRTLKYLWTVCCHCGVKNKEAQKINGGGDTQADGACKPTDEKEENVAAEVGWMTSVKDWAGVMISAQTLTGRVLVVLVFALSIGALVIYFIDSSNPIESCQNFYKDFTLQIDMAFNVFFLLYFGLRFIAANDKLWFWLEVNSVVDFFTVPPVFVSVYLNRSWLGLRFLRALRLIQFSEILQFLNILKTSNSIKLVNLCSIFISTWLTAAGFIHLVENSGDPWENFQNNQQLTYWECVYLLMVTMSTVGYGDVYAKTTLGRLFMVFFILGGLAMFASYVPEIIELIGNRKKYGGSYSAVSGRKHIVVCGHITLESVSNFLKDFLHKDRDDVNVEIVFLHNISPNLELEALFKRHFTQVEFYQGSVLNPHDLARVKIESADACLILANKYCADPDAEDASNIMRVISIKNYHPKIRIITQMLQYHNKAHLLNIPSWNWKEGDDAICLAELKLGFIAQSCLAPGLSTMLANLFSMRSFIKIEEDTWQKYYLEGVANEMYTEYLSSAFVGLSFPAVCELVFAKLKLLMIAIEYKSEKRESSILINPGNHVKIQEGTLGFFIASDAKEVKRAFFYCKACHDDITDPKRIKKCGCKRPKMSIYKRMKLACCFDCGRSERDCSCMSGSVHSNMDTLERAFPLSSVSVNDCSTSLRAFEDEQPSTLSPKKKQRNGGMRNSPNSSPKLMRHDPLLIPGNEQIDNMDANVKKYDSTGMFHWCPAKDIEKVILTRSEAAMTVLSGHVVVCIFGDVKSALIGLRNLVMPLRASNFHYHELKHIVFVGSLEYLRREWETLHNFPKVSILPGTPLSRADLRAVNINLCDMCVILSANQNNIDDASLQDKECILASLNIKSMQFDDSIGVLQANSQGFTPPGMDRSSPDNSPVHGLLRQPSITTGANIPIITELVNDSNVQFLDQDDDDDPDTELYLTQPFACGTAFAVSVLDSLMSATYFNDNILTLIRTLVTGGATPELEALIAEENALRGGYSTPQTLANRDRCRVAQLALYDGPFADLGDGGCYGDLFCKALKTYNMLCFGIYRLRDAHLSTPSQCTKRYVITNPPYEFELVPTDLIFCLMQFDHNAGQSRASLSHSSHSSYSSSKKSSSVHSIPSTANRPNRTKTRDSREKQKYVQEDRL
T2 sequence (Q8AYS8 with tags, fused parts or gaps isoform Q8AYS8-3 DEL657-715): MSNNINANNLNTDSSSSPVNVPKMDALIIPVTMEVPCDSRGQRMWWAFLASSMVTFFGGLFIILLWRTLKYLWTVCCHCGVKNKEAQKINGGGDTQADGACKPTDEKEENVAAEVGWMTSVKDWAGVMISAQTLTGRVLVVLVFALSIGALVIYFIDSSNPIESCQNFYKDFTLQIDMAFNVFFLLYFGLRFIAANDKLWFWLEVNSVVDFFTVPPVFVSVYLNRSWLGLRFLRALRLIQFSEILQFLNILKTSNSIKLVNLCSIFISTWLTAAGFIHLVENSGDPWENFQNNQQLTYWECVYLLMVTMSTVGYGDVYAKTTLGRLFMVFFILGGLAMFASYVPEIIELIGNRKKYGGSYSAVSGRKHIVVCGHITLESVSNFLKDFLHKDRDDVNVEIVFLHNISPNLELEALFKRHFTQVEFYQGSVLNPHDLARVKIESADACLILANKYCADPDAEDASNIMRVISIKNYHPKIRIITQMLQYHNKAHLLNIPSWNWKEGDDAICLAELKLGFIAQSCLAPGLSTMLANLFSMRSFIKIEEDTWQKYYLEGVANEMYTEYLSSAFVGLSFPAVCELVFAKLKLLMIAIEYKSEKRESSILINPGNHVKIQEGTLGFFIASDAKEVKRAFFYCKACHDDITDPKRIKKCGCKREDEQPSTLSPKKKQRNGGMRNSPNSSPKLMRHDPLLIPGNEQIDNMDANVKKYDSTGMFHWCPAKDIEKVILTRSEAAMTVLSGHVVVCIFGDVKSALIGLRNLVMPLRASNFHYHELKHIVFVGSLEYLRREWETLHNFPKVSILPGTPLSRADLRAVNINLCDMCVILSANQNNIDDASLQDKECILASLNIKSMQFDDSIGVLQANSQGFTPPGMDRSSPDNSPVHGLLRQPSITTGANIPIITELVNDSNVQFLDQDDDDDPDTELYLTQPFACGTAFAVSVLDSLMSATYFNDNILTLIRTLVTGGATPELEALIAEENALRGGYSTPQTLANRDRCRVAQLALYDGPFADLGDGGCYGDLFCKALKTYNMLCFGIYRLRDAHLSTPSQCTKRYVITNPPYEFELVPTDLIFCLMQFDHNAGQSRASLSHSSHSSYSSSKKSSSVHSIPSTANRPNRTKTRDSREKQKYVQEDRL

| Substance | inhibiting activity [1] | level of inhibiting activity compared with GsMTx-4 [1] | inhibition (channel's open probability Po vs control) ([1]; after 8 minutes) | inhibition of wild-type SA channel [1] | inhibition of STREX-deletion-mutant (STREX-deletion-mutant) | further results |
| --- | --- | --- | --- | --- | --- | --- |
| TVP019: mutation in which the 7th K from the N-terminus of TVP004 had been substituted by A (CARPKLAC) | found to show inhibiting activity |  |  |  |  | inhibition (channel's open probability Po vs control) ([1]; after 14 minutes): approximately 80% |
| TVP017: mutation in which the 3rd R from the N-terminus of TVP004 had been substituted by A (CAAPKLKC) | found to show inhibiting activity | higher level than |  |  |  | inhibition (channel's open probability Po vs control) ([1]; after 6 minutes): 100%; level of inhibition compared with TVP003 ([1]; time taken for inhibition): even higher level of inhibition than TVP003 |
| TVP005: designed peptide from GsMTx-4 comprising loops 2 and 3 (WKCNPNDDKAARPKLKC) | displayed inhibiting activity |  |  |  |  | inhibition (channel's open probability Po vs control) ([1]; after 20 minutes): about 60% |
| WKCNPNDDKC [TVP003] | displayed inhibiting activity | the same as or higher than | 100% | inhibit the wild-type SA channel | do not inhibit the STREX-deletion-mutant hardly at all | dissociation constant ([1]; estimated from inhibition ratio): μM order or lower |
| TVP004: designed peptide from GsMTx-4 comprising loop 3 (CARPKLKC) | displayed inhibiting activity |  | about 60% |  |  | inhibition (channel's open probability Po vs control) ([1]; 10 μM, after 16 minutes): 95% |
| GsMTx-4 (GCLEFWWKCNPNDDKCCRPKLKCSKLFKLCNFSSG; disulfide (positions not given here); ends not checked; listed as Grammostola spatulata) [reference compound] |  |  |  | inhibit the wild-type SA channel | do not inhibit the STREX-deletion-mutant hardly at all |  |
